Measurements reported in patent US10028997B2, “Systems and methods for attracting and trapping brain cancer cells” (GEISINGER HEALTH SYSTEM, priority 2014, dated 2018).

B1: denatured Lcn2: Lcn2 denatured by boiling in SDS buffer for 10 minutes (protein)
chain: QDSTSDLIPAPPLSKVPLQQNFQDNQFQGKWYVVGLAGNAILREDKDPQKMYATIYELKEDKSYNVTSVLFRKKKCDYWIRTFVPGCQPGEFTLGNIKSYPGLTSYLVRVVSTNYNQHAMVFFKKVSQNREYFKITLYGRTKELTSELKENFIRFSKSLGLPENHIVFPVPIDQCIDG
B2: lipocalin-2 (protein, listed as Homo sapiens)
chain: MPLGLLWLGLALLGALHAQAQDSTSDLIPAPPLSKVPLQQNFQDNQFQGKWYVVGLAGNAILREDKDPQKMYATIYELKEDKSYNVTSVLFRKKKCDYWIRTFVPGCQPGEFTLGNIKSYPGLTSYLVRVVSTNYNQHAMVFFKKVSQNREYFKITLYGRTKELTSELKENFIRFSKSLGLPENHIVFPVPIDQCIDG
notes: member of the lipocalin family, a 23 kDa hydrophilic protein

Columns and labels:
Format in all cases: cell-based
[1] = tested on: human glioblastoma stem cells (hGSCs); assay: Boyden chamber migration, crystal violet staining and microscope cell count; settings: for hGSC migration (cells counted in bottom chamber): 10 μg/ml in bottom chamber, 16 hours, serum free medium, p<0.0001, FIGS. 3B and 3C
Method: Finally, human glioblastoma cell migration was also observed under the microscope. hGSCs were seeded in the upper Boyden chamber in serum free medium. Lcn2 was added to the bottom chamber at 10 μg/ml and cells were allowed to migrate for 16 hours. The bottom chamber was fixed and stained with crystal violet and cells were counted using a Zeiss Phase Contrast microscope at 10× magnification. […] To show the specificity of the Lcn2 chemotactic effect and to determine if the effect of Lcn2 on migration is […], Lcn2 was denatured by boiling in SDS buffer for 10 minutes and then added to the bottom Boyden chamber.

[2] = tested on: human glioblastoma stem cells (hGSCs); assay: Chemotaxis assay plate, linear Lcn2 gradient; settings: linear gradient of 10 μg/ml Lcn2 for 8 hours, FIGS. 4A-C
[3] = tested on: human glioblastoma stem cells (hGSCs); assay: XCELLIGENCE RTCA CIM-16 (Boyden chamber) migration of hGSCs, Lcn2 in lower chamber
Method: Human glioblastoma stem cells (hGSCs) were seeded in an XCELLIGENCE RTCA CIM-16 plate, which functions as a Boyden chamber, in serum-free media. The XCELLIGENCE system (ACEA BIOSCIENCES, INC.) measures total surface area covered by cell membrane by detecting the electrical impedance, using microelectronic biosensor technology (Ness et al., NATURE COMMUNICATIONS 4:1912 (2013)). The lower chamber was supplemented with 10 μg/ml Lcn2 or 10% serum. Cell migration from the upper to the lower chamber was measured and plotted over time and the migration slope was calculated using RTCA DP software (ACEA BIOSCIENCES, INC.). The experiment was repeated four times and the results are presented as average+/−standard deviation.

[4] = tested on: human glioblastoma cells; assay: XCELLIGENCE migration after Lcn2 pre-treatment of glioblastoma cells; settings: pre-treated with 10 μg/ml Lcn2 for 24 hours; p<0.0001; FIGS. 2B and 2C
Method: To further determine the effect of Lcn2 on glioblastoma cell migration, glioblastoma cells were first pre-treated with 10 μg/ml Lcn2 for 24 hours. Migration was subsequently quantified using the XCELLIGENCE system in the presence or absence of Lcn2 as a chemo-attractant in the lower Boyden chamber.

Molecule | hGSC migration (cells counted in bottom chamber) [1] | migration towards the opposite direction (chemokinesis) [2] | migration toward the linear Lcn2 gradient (chemotaxis) ([2]; p<0.005) | rate of migration of hGSCs, lipocalin-2 in one chamber versus PBS in one chamber or lipocalin-2 in both chambers ([1]; FIGS. 3B, 3C) | migration of hGSCs from upper to lower chamber ([3]; 10 μg/ml Lcn2 in lower chamber vs 10% serum, serum-free media, FIG. 2A) | attraction of hGSCs toward the bottom chamber containing the Lcn2 depot ([3]; 10 μg/ml Lcn2 in lower chamber, FIG. 3A) | migration after pre-treatment with Lcn2 [4]
B1 | No effect on hGSC migration was observed |  |  |  |  |  | 
B2 | a significant increase in hGSC migration was observed | no difference in migration towards the opposite direction | increased migration toward the linear Lcn2 gradient | increases the rate of migration of human glioblastoma stem cells (hGSCs) to the lipocalin-2-containing chamber | increases the migration of hGSCs as compared to serum alone | significantly attracts hGSCs toward the bottom chamber | induced a significant increase in migration
